Data on 2 molecules can be found in PMC9023288, “The Burkholderia cenocepacia iron starvation σ factor, OrbS, possesses an on-board iron sensor” (Nucleic Acids Research, 2022).

Test [1] concerns the target His-tagged OrbS-CtetraA (OrbS with all four C-terminal cysteine residues replaced by alanine). The test is described as follows: BLI. For orientation: In BLI a coated tip is dipped into the sample, and binding shifts an interference pattern.
In test [2] the target is T1, E. coli core RNA polymerase (core RNAP, α2ββ'ω) (E. coli, UniProt P0A7Z4 1-329; P0A8V2 1-1342; P0A8T7 1-1407; P0A800 1-91).
T1 construct: RNA polymerase subunit alpha, E. coli; RNA polymerase subunit beta, E. coli; RNA polymerase subunit beta', E. coli; RNA polymerase subunit omega, E. coli; Commercial core enzyme (NEB); also called E. coli RNAP core enzyme; core E. coli RNAP; source: bought: NEB; copies: 2 + + +
The test is described as follows: BLI. The conditions noted are these: both partners purified.

Values joined by “and” are separate entries in the source; they are usually repeats but may differ in a detail not shown here. Equal entries are not always repeated.

For the molecule “E. coli core RNA polymerase (core RNAP, α2ββ'ω) (from UniProt P0A7Z4 1-329; P0A8V2 1-1342; P0A8T7 1-1407; P0A800 1-91) (complex)”, in test [1], the equilibrium dissociation constant (Kd) was 20 nM and 160 nM; the kon is 15000 M⁻¹ s⁻¹ and 9100 M⁻¹ s⁻¹.

B1: His-tagged Burkholderia cenocepacia OrbS (iron starvation ECF σ factor) (natural protein, UniProt B4E986 1-222, looked up)
chain: MAMAEVLDRPAAAAANPFLGSYPDLPPRAAPRARRASEPRAQGALLDVLISHRAMLVNVARGFVGCASRAEDVVHDVFVKLVEFPNQDAVRQPVAYVTRMVRNASIDACRRQNLENVYHTEEDDGFDVPSPEPTPEAALMTRDTLRRVWAALDDLPARSRAAFEMVRLREETLQTAARALNVSQTLVHFMVRDAERHCAECLDACHRGVACPVFLGGRARRR
notes: also called σ^OrbS; BCAL1688
In test [2], B1 displayed a Kd of 83 nM, a koff of 0.00045 s⁻¹ and a kon of 5400 M⁻¹ s⁻¹.

What is called Kd is a measure of binding affinity in units of concentration. The low end stands for a tighter complex, the high end for a looser complex. In general, kon refers to a measure of how fast the partners come together. High values mean faster complex formation, low ones slower complex formation. One may read the koff as a measure of how fast the partners let go of each other.
